According to the RNAGym collection of RNA variant scans (doi:10.1073/pnas.2313332121):

B1: TPR t1 (parent)
chain: GACCAAUCUGCCCUCAGAGCUCGAGAACAUCUUCGGAUGCAGAGGAGGCAGGCUUCGGUGGCGCGAUAGCGCCAACGUCCUCAACCUCCAAUGCAUCCCACCACAUGAUGAUGCCUGAAGAGCCUUGGUUUUUUG

Variants of: B1
Experiment: polymerase ribozyme fitness, log enrichment relative to wild type (log ratio); higher = more active; in vitro selection for triplet polymerase activity
How it was run: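 For each subunit of a heterodimeric triplet polymerase ribozyme, a mutant library was built by PCR and transcribed, then taken through a single in vitro selection round in triplicate. Selection involved annealing to a biotinylated primer, the partner subunit and triplets, incubation frozen at −7 °C, gel excision of extended constructs, capture on streptavidin beads and RT-PCR. Genotypes were retained after Illumina sequencing of inputs and outputs only with ≥10 input reads and ≥1 read in each output. Fitness is defined as the logarithm of a genotype's enrichment relative to wild-type enrichment, using inverse-variance-weighted averages across replicates, with the logarithm taken to base 2.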

Variant	polymerase ribozyme fitness (log ratio)
U33C C124U	-3.97
C11A C49U C94G	-2.46
C34A G39U C98A	-3.78
C22U G52C	-4.83
C3U C53U	-1.24
C22G C82A A83U G93C	-4.04
U7A A37U G71U A95G U96A	-0.194
U14G C15G U33G C40A C114G U130C	-5.88
C28U G48A	-3.13
A18C A50C G58A C97U	-5.7
C70U A121U	0.918
G44C C53U G61U C124U	0.752
G17C C20A A43C C123A U129G	-3.55
C56A U109A	-5.84
A16C A90C	-4.52
A27G C49G G61C G63U C89G G117C	-6.39
G61C G120U	-1.08
U7C A91G C123U U126A	0.505
G69C C101G G122A U125A	-3.83
U9A G45U G113U G122U	-2.61
C12U G63A	-0.293

Variant	polymerase ribozyme fitness (log ratio)
A2U C64U C124U	-1.49
A83C C104A C115U	-4.27
G45A C64A	-6.18
A18G G44U C86A C104U G120C	-3.98
A29G G39U C85U C89U	-4.23
G17A C73A G120C G135A	-1.5
G52U U92C C114G	-5.11
C8G C12A G17C A29G A46U G47A C72U	-6.22
G19U G60A C79U G120C	-2.44
A5U A43G C124A	-0.815
C3A G51C G69U	-2.31
C72U U130A	-1.42
C15U C73A U78A C86G	-2.43
C11U C82U	-1.45
G61A C79U C115A G120A	-0.74
C40U A46U G52A C70U	-3.49
C11U C12G C56A C88U	-1.97
C15G A29C G71C C86U G113U G120U U129A	-6.08
C8A G44C G57C G117C U126A	-5.88
G45U C53A C64A U112A G117A	-6.13
C49U C97G	-5.89

Variant	polymerase ribozyme fitness (log ratio)
C12U G117A G127C	-0.67
A6C G23A C98A C115G	-7.8
G57C U106A	-0.376
G17C U55G C56A G63C G77U G113A	-5.71
G42U G47C C49G	-2.84
A46U A50U G61U U125C	-4.52
U9A C11U C40A U134G	-0.696
C70U A111C	-0.279
C28U G71C	-2.78
G110A U129C	-1.47
C3A C15A A41U G58C G71U U92G C114G	-5.03
G36A G57A	-1.38
A41U G93A U112A	-1.69
C4A G69U U106C C124U	-1.05
G42A G120U	-1.82
G39A G63C	-1.48
A50U G110A	-2.67
C64U C114G	-2.3
C88U A100G A108G U133G	-5.29
C3A G127U	-0.622
G36A U54A U112A	1.22

Variant	polymerase ribozyme fitness (log ratio)
C22U C115G	-4.6
A6U U9C G47A G63U	-1.85
C62A U129G	-1.28
A43C C85G	-3.37
C12A G36U G48A G63C C123A	-0.6
G10U C76A G127C	-2.18
A27U G69U C101A	-2.96
G45U C73G	-0.942
C3G C73A C76U A90G G120U G127U	-3.52
A68C U78G U112A	-7.68
C3U C82A	-0.533
C11G C49A C62A	-0.975
G10A G120U	1.07
C56G A83U C115U	-2.71
C40U G47A G48C G93A G122A	-1.34
C11G U14G C15U A46C C73G C82A	-4.14
C11U U125A	-0.822
C15U A46G A84U U112A G113U G120U	-4.78
U54G C56A	-1.48
A50U G61A U106A	-1.03
G47U G71C U125G	-2.97
